Source: patent US8598081B2, “Specific delivery of agrochemicals” (priority 2010, dated 2013)

Assays:
potato leaf discs = assay: VHH binding at different pH, leaf dip experiment; parameters: species or system potato (variety Desiree); conditions: whole range tested from pH 2 to pH 11; 5 μg/ml; 1 hour
Experimental: In order to test applicability of VHH as binders for greenhouse or field applications where binding supposedly may occur at pH-values, deviating strongly from physiological conditions in which antibodies naturally bind their targets, a leaf dip VHH binding experiment was carried out in a series of solutions with different pH. The following solutions were prepared: 50 mM glycine pH 2.0, 50 mM sodium acetate pH 4.0, 50 mm sodium carbonate pH 9.6, and 10 mM sodium hydroxide pH […] 8 mm potato leaf discs (variety Desiree) were cut using a puncher tool. The leaf discs were first equilibrated to the different pH by washing three times with solutions at different pH. Hexahistidine-tagged VHH were diluted to 5 μg/ml in solutions with different pH, added to the corresponding equilibrated leaf discs, and binding of VHH was allowed for 1 hour. After incubation with VHH, leaf discs were washed three times with solutions at the corresponding different pH. After that, all were washed two times with PBS to equilibrate leaf discs to PBS. Bound VHH were detected by incubation with monoclonal mouse anti-histidine antibodies directly conjugated with Alexa-488 fluorescent dye (Abd Serotec) in PBS for 1 hour. Unbound anti-histidine antibodies were removed by washing five times with PBS. Leaf discs were analyzed for bound VHH with microscopy.

surface of grass leaves = assay: VHH binding to non-fixed leaf discs, grass; conditions: 5 μg/ml, detection with anti-histidine Alexa-488
Experimental: (§1) VHH binding to non-fixed leaf discs of potato (variety Desiree), black nightshade, grass, wheat or azalea was investigated. For comparison, binding of CBM3a to non-fixed leaf discs of potato (variety Desiree) was analyzed in parallel. Leaf discs were prepared by punching a fresh potato leaf with a 5 mm belt hole puncher tool. Leaf discs were put immediately in wells of a 96-well plate containing 200 μl per well 5% MPBS or PBS, and incubated for 30 minutes. Leaf discs were transferred to solutions containing 5 μg/ml VHH antibody fragment, respectively, 5 μg/ml CBM3a in 2% MPBS or PBS and incubated for 60-90 minutes. Unbound VHH or CBM3a proteins were removed by washing three times with 2% MPBS or PBS. Bound VHH or CBM3a proteins were detected with incubation with monoclonal mouse anti-histidine antibodies directly conjugated with Alexa-488 fluorescent dye (Abd Serotec) in 1% MPBS for 1 hour. Unbound antibodies were removed by washing three times with PBS. Leaf discs were put on glass slides, covered with cover slips, and analyzed by microscopy or on a macrozoom microscope system (Nikon) or a SP5 confocal microscope system (Leica).

[1] = test system: surface of black nightshade leaves; assay: VHH binding to non-fixed leaf discs, black nightshade; conditions: 5 μg/ml, detection with anti-histidine Alexa-488
Experimental: as §1

[2] = ELISA-like assay, microcapsules with monovalent or bivalent VHH, unrelated antigen; format: binding; parameters: unit not given beside the values; conditions: Uvitex microcapsules
Source text: Bivalent VHH constructs were produced in bacteria by cloning two VHH sequences in tandem into the pASF22 vector, creating a fusion of two VHH with a 9 glycine-serine linker (GGGGSGGGS (SEQ ID NO:50)) in between the two VHH. pASF22 is an in-house produced pMES derivative. The tags that were used were C-terminal c-Myc (EQKLISEEDLN (SEQ ID NO:51)) and hexahistidine (HHHHHH (SEQ ID NO:52)). A triple alanine linker (AAA) was placed in between the C-terminal end of the VHH and the c-Myc tag and a glycine-alanine-alanine (GAA) linker was used in between the C-terminal end of the c-Myc tag and the hexahistidine tag. The complete sequence C-terminal of the bivalent VHH that was used: AAA-EQKLISEEDLN-GAA-HHHHHH (SEQ ID NO:53). Fresh overnight cultures were produced by starting from colony streaks and inoculation of 2×TY media supplemented with 2% glucose and 100 μg/ml ampicillin. The overnight cultures were used to inoculate fresh cultures 1:100 in 2×TY media with 0.1% glucose and 100 μg/ml ampicillin. After growing at 37° C. in a shaking incubator for 3 hours, IPTG was added to a 1 mM final concentration and recombinant bivalent VHH were produced during an additional incubation for 4 hours. Cells were spun down and resuspended in 1/50th of the original culture volume of PBS and incubated with head-over-head rotation at 4° C. for 30 minutes. Spheroplasts were spun down by centrifugation at 3,000 g and 4° C. for 20 minutes. Supernatants were transferred to fresh tubes and centrifuged again at 3,000 g and 4° C. for 20 minutes. The supernatant was collected and sodium chloride concentration was adjusted to 500 mM and imidazole concentration to 20 mM. Hexahistidine-tagged bivalent VHH were purified from the extracts using HisTrap FF Crude 5 ml IMAC columns (GE Lifesciences) and HiLoad 16/60 Superdex 75 prep grade gel filtration column (GE Lifesciences) on an AKTAxpress system (GE Lifesciences) following standard procedures.
Next, it was investigated if binding of microcapsules to surfaces could be improved by using targeting agents comprising multivalent VHH. A series of parallel couplings was performed with equal amounts of monovalent VHH, bivalent VHH, and unrelated VHH. Success of coupling of VHH and multivalent VHH were analyzed as described in Example 4. An ELISA-like assay was performed using high bind half area microplates (Greiner Bio-One) coated with 5 μg/well potato lectin. Control wells included blank wells or wells coated with unrelated antigens. Plates were washed three times with PBS with 0.05%-TWEEN®-20 and blocked with 5% skimmed milk in PBS for 1 to 2 hours. VHH-coupled Uvitex-containing microcapsules were diluted to appropriate densities in 1% skimmed milk in PBS with 0.05%-TWEEN®-20. Five-fold serial dilution series were prepared and allowed to bind to the surface to compare binding of microcapsules coupled with monovalent or bivalent VHH. Microcapsules were added to the antigen-coated or control wells and allowed to bind for 1 hour. Unbound microcapsules were removed by washing five times with PBS with 0.05%-TWEEN®-20. The bottoms of ELISA plate wells were analyzed for bound microcapsules on a macrozoom microscope system (Nikon). Microcapsules were counted using Volocity image analysis software (Perkin Elmer). A DAPI filter was used to visualize Uvitex microcapsules. […] The surface area of microcapsules with coupled bivalent VHH was 15-fold above the surface area of blank microcapsules applied at this microcapsule density while the surface area of microcapsules with monovalent VHH was only six-fold above the surface area of blank microcapsules applied at this microcapsule density. This difference could be explained by an increase in binding strength due to additional avidity of the bivalent VHH compared to monovalent VHH, it could also be that the use of bivalent VHH increases flexibility and spacer length of the coupled targeting agents on microcapsules, or a combination of both.

| Molecule | binding to leaf discs at different pH (potato leaf discs) | binding to native grass leaf surface (fluorescence microscopy) (surface of grass leaves) | binding to native grass leaf surface (fluorescence microscopy) (surface of grass leaves; listed as 3E6) | binding to native black nightshade leaf surface (fluorescence microscopy) [1] | binding to native black nightshade leaf surface (fluorescence microscopy) ([1]; listed as 3E6) | Surface area of bound microcapsules ([2]; no coating (second series, with unrelated antigen rows), surface coverage 100%) | Surface area of bound microcapsules ([2]; unrelated antigen, surface coverage 4%) | Surface area of bound microcapsules ([2]; unrelated antigen, surface coverage 20%) | Surface area of bound microcapsules ([2]; unrelated antigen, surface coverage 100%) |
| --- | --- | --- | --- | --- | --- | --- | --- | --- | --- |
| VHH 3E6: VHH binding gum arabic, potato lectin and leaf surface; SEQ ID NO:7 by order of the list (protein, listed as Lama glama, 3E6) VHH: QVQLQESGGGLVQPGGTLSLSCAASGFNVRWYGMGWFRQAPGKEREGVACISALQETTAYADSVKGRFTLSRDNPKNTLSLQMNNLQPEDTGVYYCATTDCDDSSRMTYTSYLGQGTQVTVSS | detectable binding | binding to leaf surface and wounded plant tissue | bind specifically | binding leaf surface, glandular trichomes, and leaf hairs | bind specifically | – | – | – | – |
| Microcapsules containing uvitex OB VHH 3E6: polyurea microcapsules containing the fluorescent tracer Uvitex OB, coupled with (monovalent) VHH 3E6 (conjugate, left off: small tags and cut ends, polyurea microcapsules containing the fluorescent tracer Uvitex OB, coupled with (monovalent) VHH 3E6) VHH: QVQLQESGGGLVQPGGTLSLSCAASGFNVRWYGMGWFRQAPGKEREGVACISALQETTAYADSVKGRFTLSRDNPKNTLSLQMNNLQPEDTGVYYCATTDCDDSSRMTYTSYLGQGTQVTVSS | – | – | – | – | – | 72.036 | 5.011 | 27.742 | 69.503 |
